From the nanobody polyreactivity screen of Harvey et al. (2022)

Experiment: yeast display, Sf9 membrane polyspecificity reagent, FACS + sequencing; frameworks hold sequencing errors
In short: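 Polyreactivity labels are assigned by the sorting gate from which each nanobody was recovered. The gates were low and high (top ~1%), set on anti-HA fluorescence for expression and streptavidin fluorescence for reagent binding. Before sorting, galactose-induced (36–48 hours) yeast display cells were stained for 1 hour at 4 °C with 10% biotinylated, detergent-solubilized Sf9 membrane reagent.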

Sequence | polyreactivity (PSR sort gate)
QVQLVESGGGLVQAGGSLRLSCAASGYTFYYAMGWYRQAPGKERELVAAISAGGGRTYYADSVKGRFTISRDNAKNTVYLQMNSLKPEDTAVYYCNRVYRLTAYGYDYWGQGTQVTVSS | high polyreactivity
QVQLVESGGGLVQAGGSLRLSCAASGRTFHGYAMGWYRQAPGKERELVARINWSDGRTYYADSVKGRFTISRDNAKNTVFLQMNSLKPEDTAVYYCAADKTVSYAPAWYYYWGQGTQVTVSS | low polyreactivity
QVHLVESGRGLVQAGGSLRLSCAASGSTFKIYAMGWYRPAPAKERELVAAITRGGSTNYADSVKGRFTISRDTAKKTVYLQMNSLKPEDTAVYSFAASYWYRRYGTYSYDYWGHGTQVTVSS | high polyreactivity
QVQLVESGAGLVQAGGSLRLSCAASGSTFTLNAMGWYRQAPGKERELVADISWSSGRTYYADSVKGRFTISRDNAKNTVDLQMNSLNPEDTAVYYCATDDFWIVKFYAYYPEFDYWGQVTQVTVSS | low polyreactivity
QVQLQVRGGDLVQAGGSLRLSCAASGTIYRLTTMGWYRQAPGKEREFVAAITDGGNTNYADSVKGRFTISRDNAKNTVYLQMICLKPEDTAVYYCAVLFSDDAYYAYWGQGTQVTVSS | low polyreactivity
QVQLVESGGGLVQAGGSLRLSCAASGIFVDNAMGWYRQAPGKERELVAAISGSGGSTFYADSVKGRFTISRDNAKNTVYLQLNSLKPEDTAVYYCNADVYPHPAFFVGHDYWGHGTQVTVSS | low polyreactivity
QVQLVESGGGLVQAGGSLRLSCAASGSILTYYAMGWYRQAPGKERELVAAINNIGGSTYYADSVKGRFTISRDNAKNTVYLQMNSLKPEDTAVYYCAKYYAWPYDYWGQGTQVTVSS | low polyreactivity
QVQLVESGGGLDQAGGSLRLSCAASGYTYGYYAMGWYRQAPGKERELVATISYSGGTTYYADSVRGRFTISRDNAKNTVYLQMNSLKPEDTAVYYCNARGYKRLYGYWVQGTQVTVSS | high polyreactivity
QVQLVESGGGLVQAGVSLRLSCAASGRISVFYTMGWYRQAPGKERELVAVNRTSGGRTNYADSVKGRFTISRDNAKNTVDLQMNSLKPEDTAVYYCAARVVRYGYKYYYWGQGTQVTVSS | low polyreactivity
QVQLVESGGGLVQAGGSLRLSCAASGDTFPKYAMGWYRQAPGKERELVAAITKRGGRTYYADSVKGRFTISRDNAKNTVYLQMNRVKPEDTAVYYCAVDLDGPEYSQVHYDYWGQGTQVTVSS | high polyreactivity
QVQLVESGVGLVQAGGSLRLSCAASGRIFPTYAMGWYRQAPGQERELVAGITSGGRTNYADSVKGRFTISRDNAKNTVYLQMNSLKPEDTAVYYCAKRVWPRDQYGKRNPRMDYWGQGTQVTVSS | high polyreactivity
QVQLVESGGGLVQAGGSLRLSCAASGSIFGYYAMGWYRQAPGKERELVAVITRSGGSTYYADSVKGRFTISRDNAKNTVYLQMNSLKPEDTAVYYSNAKSDYGYKMYYWGQGTQVTVSS | high polyreactivity
HVQLVESGGGLVQAGGSLRLTCAASGFSYGYYAMGWYRQAPGKEWELVATISSGDNTYYADSVKGRFTSSRDNAKNTVYLQMNSLKPEDTAVYYCAARYPHYFVRGGYWGQGTQVTVSS | high polyreactivity
QVQLVESGGGLVQAGGSLRLTCAASGRIFNYYAMGWYRQAPGKERELVAVITYSAGRTYYADSVKGRFTLSRDNAKNTVYLEMNSLKPEDTAVYYCNADGWVSVSKHYYYWGQGTQVTVSS | low polyreactivity
QVQLVESGGGLVQAGGSLRLSCAASGRTLKLNAMGWYRQAPGKERELVAAISWRGGSTYYADSVKGRFTISRDNAKNTVYLQMNSLKPEDTAVYYCAAEATAGFWSYGTYDYWGQGTQVTVSS | high polyreactivity
QVQLVESGGGLVQAGGILRLSCAASGSIFDVYAMGWYRQAPGKERELVAAISRSGGRTYYADSVKGRFTISRDNAKNRVYLQMNSLKPEDTAVYYCATYPCNWDLDYWGHGTQVTVSS | high polyreactivity
QVQLVESGGGLVQAGGSLRLSCAASGSTFPFYAMGWYRQAPGKERELVAAIRYTGNTYYADSVKGRFTISRDNAKNTVFLLMISLKPEDTAVYYCAADADYWAYGYWGHGTQVTVSS | low polyreactivity
QVQLVESGGGLVQAGGSLRLSCAASGSTFDYNTMGWYRQAPGTERELVADITWRGASTYYADSVKGRFTISRDNAKNTVYLQMNSLKPEDTAVYYCAADYYSATGSYAYDYWGQGTQVTVSS | low polyreactivity
QVQLVESGGGLVQAGGSLRLSWAASGLIFYDNMGWYRQAPGKERELVASISSSGGSTSYADSVKGRFTISRDNAKNTVYLQMNSLKPEDTAVYYCAAVRRGYKYVYWGQGTQVTVSS | low polyreactivity
QVQLVESGGGLVQAGGSLRLSCAASGSIFDDYAMGWYRQAPGKERELVAAISWSGGRTYYADSVKGRFTISRDNAKTTVYLQMNSLKPEDTAVYDCAATTGVRSRRYYYWGQGTQVTVSS | low polyreactivity
QVQVVESGGGLVQEGGSHRISCAASGRIFFTNAMGWSRQAPGKERELVAAINDVGSTYYADSVKGRFTISRDNAKNTVYLQLNSLKAEDTAVYYCAVQAYGRGRSLKMYYWRQGTQVTVSS | high polyreactivity
QVQLVESGGGLVQAGGSLRLSCAASGSIFDYYTMGWYRQAPGKERELVATIRSGDSTNYADSVKGRFTISRDNAKNPVYVQMNSLKPEDTAVYYCAADDGAYPTLYDYWGQGTQVTVSS | low polyreactivity

Sequence | polyreactivity (PSR sort gate)
QVQLEESGGGLVQAGGSLRLSCSAYGFTFSRYDMGWYRQAPGKERELVAAISWSGGSTYYADSVKGRFTISRDNAKNSVYLQMNSLKPEDTAVYYCAKPGWSVTGESWGQGTQVTVSA | high polyreactivity
QVQLVESRGGLVQAGGSLRLSCAASGRIFLRNAMVWYRQAPGKERELVASIDRSGGSTYYADSVKGRFTISRDNAKNTVYLQMNSLKPEDTAVYYCAAAYWYLYYYWGQGTQVTVAS | low polyreactivity
QVQLVESGGGLVQAGGSLRLSCAASGVTFYAYAMAWYRQAPGKERELVAVISQSGTRTYYADSVKGRFTISRDNAKNTVYLQMNSLKPEDTAVYYCAAPKAQLQPYYYWGQGTQVTVSS | high polyreactivity
QVPLVESGGGLVQAGGSLRLSCAASGSIFNIYALGWYRPAPGKVWELVAGISWDSGSTFYADSVKGRVTISRDNAKNTVYLQMNSLKPEDTAGYYCNVVYETYCDEFDYWGQGTQVTVSS | high polyreactivity
QVQLVESGGGLDQAGRSLRLSCAASGSTFPYTAMGWYRQAPGKYRELVAGITDGDGSTSYADSVKGRFTISRDNAKNTVYLQMNCMKPELPAVYYCAARYTYYADEDDYWGQGSQVTVSS | low polyreactivity
QVQLVESGGGLVQAGGSRRLSWAASGSTFPRNAMGWYRQAPGKERELVAAISSGGSTYYADSVKWRFTISRDNAKNTVYLQMNSLKPEDTAVYYCAARLYWPIIVVDLYGYDYWGEGTQVTVSS | low polyreactivity
QVQLVESGGGLVQEGGSLRLSCADSGSTFHYYTMGWYRQAPGKERELVAAISWRGTSTYYADSVKGRFTISRDNAKNTVYLQMNSLKPEDTAVYYCAVRSSPGAGYYYWGQGTQVTVSS | high polyreactivity
QVQLVESGGGLVQAGGSLRISCAASGSTFFRYAMGWYRQAPGKERELVAAIYKSGASTYYADSVKGRFTISRDNPKNSVYLQMNSLKPEDTGVYYCNADVKNSSAREWQYGYDYWGQGTQVTVSS | low polyreactivity
QVQLVESGGGLVQAGGSLRLSCAASGSNFRTYPIGWYRQAPGKERELVAAISSNGGSTYYADSVKGRFTISRDNAKNTVYLQMNSLKPEDTAVYYCANDQTGYWYNRYGYWGQGTQVTVSS | low polyreactivity
QVQLVESGGGLVQAGGSLRLSCAASGSIFYYYAMGWYRQAPGKERELVAAISTGGGSTYYADSVKGRFTISRDNAKNTVYLQINSLKPEDTAVYYCAAPWGYYSSFTDDYWGHGTQVTVSS | low polyreactivity
QVQLVESGGGLVQAGGSLRLSCAASGSIFRNYAMGWSRQAPGKERELVAAINWNGGSTYYADSVKGRFTISRDNAKNTVYLQMNSLKPEDTAVYYCAARSSKFVTSNRYDYWGQGTQVTVSS | high polyreactivity
QVQLVESGGGLVQAGGSLRLSCAASGLTFERYAMGWNREAPGKERELVAAISGSGGSTYYADSVKGRFTISRDNAKNTVYLQMNSLTPEDTAVYYCAAYPTVWYDYWGQGTQVTVSS | high polyreactivity
QVQLVESGGRLVQAGGSLRLSCSASGRICAYYAKGWYRQAPGKDRELVADSTYADSVKGRFTISRDNAKNTVYLQMKSLKPEYTAVYYCAVDYHFFLSRTYLPGSKYDFWGLGTQVTVSS | low polyreactivity
QVQLVESGGGLVQAGGSLILSCAASYAMGWYRQAPGKERELVATIKSGGVSTYYADSVKGRFTISRDNAKNTVYLQMNCLKPEDTAVYDCAANASHSTSADYDYWGQGTQVTVSS | low polyreactivity
QVQLVESGGGLVQAGGSLRLSCAASGITFRCNAMGWYRQAPGKERELVASITGGTDTYYADSVKGRFTISRDNAKKTVYLQMNSLKPEASAVYYCAAPSNQYFRYKRRYYYWGQGTQVTVSS | high polyreactivity
QVQLVESGGGLVQSGGSLRLTCAASGFIFHKYVMGWYSPAPGKEREMVAAISRSGASTYYADSVKGRFTISRDNAKNTVYLQMNSLKPEDTAVYYCAKDYQTYSGSSDFDYWGQGSQVTVSS | high polyreactivity
QVQLVESGGGLVQAGGSLRLSCAASGFTFYANAMGWYRQAPGKERELVAAITQGGDSTYFADSVKGRFTISRDNAKKSVYLQLNSLKREDTAVYYCNTDLLCEYDYWGQGTQVTVSS | low polyreactivity
QVQLVESGGGLVQAGGSLRLSCAASGRTFSVNAMGWYRQAPGKERELVAAISWDGGSTYYADSVKGRFTISRDNAKNSVYLQMNSLKPEDTAVYYCNKDLYYAYDYWGQGTQVTVSS | low polyreactivity
QVQLVESGGGLVQAGGSLRLSCAASGRTLGPNPMGWYRPAPGKERELVAAITYNAGSTYYADSVKGRFTISRDNAKNTVYLQMNSLKPEDTAVYYCAARSTQKWTKYYYWGQGTQVTVSS | high polyreactivity
QVQLVESGGGLVQAGGSLRFSCAASGFTLQQYTMGWYRQAPGKERELVAAISTSGVRTYYADSVKGRFTISRDNAKNTVYLQMNSLKPEDTAVYYCNAAWVYGIGWYSGYDYWGQGTQVTVSS | high polyreactivity
QVQLVESGGGLVQAGGSLRLSCAASGFTFTYNTMGWYRQAPGKERELVAAISRSGGSTYYADSVKGRFTISRDNAKNTVYLQMNSLKPEDTAVYYCAKQRRDYNGGYWGQGTQVTVSS | high polyreactivity
